Measurements taken from patent US20200354411A1, “Chimeric Molecule for Targeting c-Myc in Cells” (priority 2017, published 2020).

Target: c-Myc (UniProt P01106)
Assay: cell-based or functional assay

c-Myc, sequence (P01106 whole entry): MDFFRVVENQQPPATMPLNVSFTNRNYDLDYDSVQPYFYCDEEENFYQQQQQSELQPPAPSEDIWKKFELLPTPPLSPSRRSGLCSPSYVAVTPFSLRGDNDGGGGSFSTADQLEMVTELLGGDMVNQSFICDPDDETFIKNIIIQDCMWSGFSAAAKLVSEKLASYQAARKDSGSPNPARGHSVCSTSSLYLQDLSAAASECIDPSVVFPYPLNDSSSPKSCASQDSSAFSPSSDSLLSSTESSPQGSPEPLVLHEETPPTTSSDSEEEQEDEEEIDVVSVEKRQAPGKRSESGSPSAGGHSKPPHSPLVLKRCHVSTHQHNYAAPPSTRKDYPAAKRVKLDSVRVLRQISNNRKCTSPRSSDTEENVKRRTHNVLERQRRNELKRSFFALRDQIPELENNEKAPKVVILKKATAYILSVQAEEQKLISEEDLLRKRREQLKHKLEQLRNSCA

Substance	decrease in Myc reporter activity at 400 µM	luciferase controlled by E-Box, A431 cells, 6 hours	decrease in Myc reporter activity at 150 µM
Int-H1 (Antenapedia cell targeting peptide fused to H1)	< 75%	200 µM	
CAD-H1 (Cadherin cell targeting peptide fused to H1)		75 µM	< 75%
Tat-H1 (TAT cell targeting peptide fused to H1)		500 µM	
